The results in this text go back to the supplement of paper PMC10567573.

To fix the notation:
B1: SNX3 (parent)
chain: FLRQLPFRGDDGIFDDNFIEERKQ
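Further: lentivirally expressed fusions sorted by FACS into six bins by GFP to DsRed ratio, PSI derived from sequencing read proportions per bin multiplied by bin number.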

The data set covers variants of B1. As to the kind of experiment: protein stability index of a GFP-peptide fusion (GPS, HEK-293T) (PSI 1-6); higher = more stable. To be noted: c terminus: a fixed tail appended.
For FLRQLPFRYDDGIFDDNFIEERKQ, the protein stability index was 2.53.

Regarding FLRQLPFRADDGIFDDNFIEERKQ, the protein stability index worked out at 3.68.

Turning to FLRQLPFRGDFGIFDDNFIEERKQ, the protein stability index came out at 2.74.

On to FLRQLPFRGDRGIFDDNFIEERKQ, for which the protein stability index amounted to 2.46.

As for FLRQLPFRGDPGIFDDNFIEERKQ, the protein stability index turned out to be 4.1.

Take FLRQLPFRGDQGIFDDNFIEERKQ: the protein stability index came out at 3.16.

Turning to FLRQLPFRGDGGIFDDNFIEERKQ, the protein stability index was found to be 4.22.

Consider FLRQLPFRGDHGIFDDNFIEERKQ, for which the protein stability index worked out at 3.15.

Take FLRQLPFRGDCGIFDDNFIEERKQ: the protein stability index was 2.91.

On to FLRQLPFRGDAGIFDDNFIEERKQ, for which the protein stability index worked out at 4.01.

As to FLRQLPFRGDIGIFDDNFIEERKQ, the protein stability index came out at 2.53.

In the case of FLRQLPFRGDEGIFDDNFIEERKQ, the protein stability index worked out at 2.9.

Consider FLRQLPFRGDMGIFDDNFIEERKQ, for which the protein stability index amounted to 3.05.

Turning to FLRQLPFRGDLGIFDDNFIEERKQ, the protein stability index is 2.71.

As for FLRQLPFRGDYGIFDDNFIEERKQ, the protein stability index was 2.32.

As to FLRQLPFRGDWGIFDDNFIEERKQ, the protein stability index was 1.94.

On to FLRQLPFRGDKGIFDDNFIEERKQ, for which the protein stability index is 3.

On to FLRQLPFRGDVGIFDDNFIEERKQ, for which the protein stability index came out at 4.03.

As to FLRQLPFRGDTGIFDDNFIEERKQ, the protein stability index came out at 3.37.

For FLRQLPFRGDNGIFDDNFIEERKQ, the protein stability index stood at 3.01.

Consider FLRQLPFRGDSGIFDDNFIEERKQ, for which the protein stability index is 4.12.

As to FLRQLPFRGDDGVFDDNFIEERKQ, the protein stability index was found to be 3.3.

As to FLRQLPFRGDDGGFDDNFIEERKQ, the protein stability index was found to be 3.52.

For the variant FLRQLPFRGDDGLFDDNFIEERKQ, the protein stability index is 3.26.

Turning to FLRQLPFRGDDGAFDDNFIEERKQ, the protein stability index amounted to 4.22.

For the variant FLRQLPFRGDDGPFDDNFIEERKQ, the protein stability index was found to be 4.03.

Consider FLRQLPFRGDDGEFDDNFIEERKQ, for which the protein stability index is 4.

As for FLRQLPFRGDDGNFDDNFIEERKQ, the protein stability index was found to be 3.28.

As for FLRQLPFRGDDGMFDDNFIEERKQ, the protein stability index was found to be 3.03.

Turning to FLRQLPFRGDDGFFDDNFIEERKQ, the protein stability index turned out to be 3.03.

For the variant FLRQLPFRGDDGQFDDNFIEERKQ, the protein stability index stood at 4.03.

With FLRQLPFRGDDGDFDDNFIEERKQ, the protein stability index amounted to 4.24.

As for FLRQLPFRGDDGWFDDNFIEERKQ, the protein stability index came to 2.72.

As for FLRQLPFRGDDGTFDDNFIEERKQ, the protein stability index was 3.48.

FLRQLPFRGDDGSFDDNFIEERKQ: the protein stability index is 3.8.

For the variant FLRQLPFRGDDGYFDDNFIEERKQ, the protein stability index was found to be 3.83.

For the variant FLRQLPFRGDDGKFDDNFIEERKQ, the protein stability index worked out at 4.7.

For the variant FLRQLPFRGDDGHFDDNFIEERKQ, the protein stability index stood at 3.67.

Take FLRQLQFRGDDGIFDDNFIEERKQ: the protein stability index was 3.32.

Turning to FLRQLNFRGDDGIFDDNFIEERKQ, the protein stability index was 3.02.

Turning to FLRQLYFRGDDGIFDDNFIEERKQ, the protein stability index was 2.9.

Take FLRQLIFRGDDGIFDDNFIEERKQ: the protein stability index was 2.26.

On to FLRQLMFRGDDGIFDDNFIEERKQ, for which the protein stability index was 1.74.

On to FLRQLRFRGDDGIFDDNFIEERKQ, for which the protein stability index came out at 3.1.

For the variant FLRQLAFRGDDGIFDDNFIEERKQ, the protein stability index amounted to 2.22.

On to FLRQLDFRGDDGIFDDNFIEERKQ, for which the protein stability index was determined as 3.31.

With FLRQLFFRGDDGIFDDNFIEERKQ, the protein stability index was 2.14.

Take FLRQLWFRGDDGIFDDNFIEERKQ: the protein stability index is 2.15.

Regarding FLRQLVFRGDDGIFDDNFIEERKQ, the protein stability index came out at 2.29.

With FLRQLSFRGDDGIFDDNFIEERKQ, the protein stability index came to 3.26.

With FLRQLKFRGDDGIFDDNFIEERKQ, the protein stability index came to 2.88.

In the case of FLRQLHFRGDDGIFDDNFIEERKQ, the protein stability index was found to be 3.1.

As to FLRQLEFRGDDGIFDDNFIEERKQ, the protein stability index was determined as 2.91.

In the case of FLRQLCFRGDDGIFDDNFIEERKQ, the protein stability index is 2.49.

Regarding FLRQLGFRGDDGIFDDNFIEERKQ, the protein stability index was found to be 3.45.

As to FLRQLTFRGDDGIFDDNFIEERKQ, the protein stability index is 2.92.

With FLRQLPFRGIDGIFDDNFIEERKQ, the protein stability index worked out at 2.03.

With FLRQLPFRGLDGIFDDNFIEERKQ, the protein stability index worked out at 2.42.

On to FLRQLPFRGSDGIFDDNFIEERKQ, for which the protein stability index worked out at 3.35.

For the variant FLRQLPFRGTDGIFDDNFIEERKQ, the protein stability index turned out to be 3.2.

For the variant FLRQLPFRGVDGIFDDNFIEERKQ, the protein stability index turned out to be 3.72.

As for FLRQLPFRGNDGIFDDNFIEERKQ, the protein stability index came out at 2.64.

As for FLRQLPFRGQDGIFDDNFIEERKQ, the protein stability index was 3.56.

Consider FLRQLPFRGEDGIFDDNFIEERKQ, for which the protein stability index worked out at 3.33.

As to FLRQLPFRGHDGIFDDNFIEERKQ, the protein stability index turned out to be 3.65.

Turning to FLRQLPFRGCDGIFDDNFIEERKQ, the protein stability index stood at 3.52.

Regarding FLRQLPFRGGDGIFDDNFIEERKQ, the protein stability index was found to be 2.76.

Consider FLRQLPFRGWDGIFDDNFIEERKQ, for which the protein stability index came to 2.35.

Turning to FLRQLPFRGYDGIFDDNFIEERKQ, the protein stability index came out at 1.9.

Turning to FLRQLPFRGRDGIFDDNFIEERKQ, the protein stability index came out at 3.27.

FLRQLPFRGMDGIFDDNFIEERKQ: the protein stability index was determined as 3.41.

For FLRQLPFRGPDGIFDDNFIEERKQ, the protein stability index came to 3.42.

FLRQLPFRGFDGIFDDNFIEERKQ: the protein stability index amounted to 2.62.

FLRQLPFRGKDGIFDDNFIEERKQ: the protein stability index amounted to 3.41.

Consider FLRQLPFRGADGIFDDNFIEERKQ, for which the protein stability index stood at 3.12.

FLRQLPFRGDDSIFDDNFIEERKQ: the protein stability index turned out to be 3.21.

For the variant FLRQLPFRGDDTIFDDNFIEERKQ, the protein stability index was 3.66.

In the case of FLRQLPFRGDDWIFDDNFIEERKQ, the protein stability index was determined as 2.67.

As for FLRQLPFRGDDHIFDDNFIEERKQ, the protein stability index came to 3.77.

For the variant FLRQLPFRGDDDIFDDNFIEERKQ, the protein stability index is 3.67.

On to FLRQLPFRGDDCIFDDNFIEERKQ, for which the protein stability index stood at 3.03.

FLRQLPFRGDDVIFDDNFIEERKQ: the protein stability index worked out at 3.07.

Turning to FLRQLPFRGDDMIFDDNFIEERKQ, the protein stability index is 3.79.

On to FLRQLPFRGDDKIFDDNFIEERKQ, for which the protein stability index is 4.03.

With FLRQLPFRGDDRIFDDNFIEERKQ, the protein stability index is 3.1.

Regarding FLRQLPFRGDDQIFDDNFIEERKQ, the protein stability index came out at 3.84.

As for FLRQLPFRGDDYIFDDNFIEERKQ, the protein stability index was found to be 2.91.

As to FLRQLPFRGDDFIFDDNFIEERKQ, the protein stability index worked out at 3.03.

With FLRQLPFRGDDIIFDDNFIEERKQ, the protein stability index was determined as 2.39.

Consider FLRQLPFRGDDNIFDDNFIEERKQ, for which the protein stability index worked out at 3.23.

On to FLRQLPFRGDDAIFDDNFIEERKQ, for which the protein stability index worked out at 3.79.

As to FLRQLPFRGDDPIFDDNFIEERKQ, the protein stability index came out at 2.74.

Take FLRQLPFRGDDEIFDDNFIEERKQ: the protein stability index is 3.64.

FLRQLPFRGDDLIFDDNFIEERKQ: the protein stability index is 3.01.
